test system: MS2 coat protein; experiment: apparent KD of MS2 coat protein; designed switch direction (-1 OFF switch, 1 ON switch): 1; higher = weaker reporter binding; settings: Eterna round: R98; input ligand: FMN 200 uM
Description: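 RNA-MaP: designed FMN/MS2 RNA switches (84 nt design region) are transcribed on-chip within common flanks and titrated with SNAP-549-labelled MS2 coat protein (about 1-3000 nM) in 100 mM Tris pH 7.5, 80 mM KCl, 4 mM MgCl2, without or with 200 uM FMN. Median apparent KD per design; activation ratio = KD,OFF / KD,ON.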

In order of falling “apparent KD of MS2 coat protein” value:
1. UGACGGCACACAGGAUAUAGUGCACAAAGUGUACUAGAAGGGUGAGCACUCGUCCGGGCACAUGAGGAUCACCCAUGUCGUCGA [Onusar]  1040 nM
2. UUGACGUCGGAUACAUGAGGAUCACCCAUGUGCCCGCGGGCACAGGAUAUCGAACAUAGUAUUGACGAGAAGGGUGACAGAGAG [Anxeenerce]  664 nM
3. CAUGAAGGGUGAGGAUAUGCACAGGAUCACCGUGUAGAAGGCAUCAGGUAGAAGGUGCAGAGGAUCACCCUGUAAGGAUAUAUC [pwkr2 ssNG1 DX.16]  482 nM
4. CCGGAAACGGGUAGCUGUACAUGAGGAUCACCCAUGUGAUCAUAGGAUAUGGUUCCUAAUUGGAACCAGAAGGAUGUCAGCUAC [Mat - Same State NG 3 - JL Mod - D86]  434 nM
5. GCCACAUGAGGAUCACCCAUGUACGGUUCCGUCUCAUUAGUGCAGGAUAUGUUCACCGGAAGUGUGCAGAAGGGUAAAAGUGGG [Onar]  209 nM
6. CCCUUCAGAAGAGGGACAUGAGGAUCACCCAUGUAGGCUGCACAGGAUAUCGAUCGGAGGCGGUACGAGAAGGGUGACGUCAUU [Soedgege]  168 nM
7. CCUACCAACACAGGAUAUGCUAUCCUUUGGGUAGCAGAAGGGUGAAACAUGAGGAUCACCCAUGUGGUGGGACCCGGUGACGGG [Mat - Same State NG 1 - Eli mod - D70]  116 nM
8. CAAUUAUGGUGAGGAUAUGCACAGGAUCACCGUGUAGAAGGCAUCAGGUAGAAGGUGCAGAGGAUCACCCUGUAAGGAUAUAUC [pwkr2 ssNG1 DX.17]  109 nM
9. CUAAUUUAUUGAGGAUAUGCACAGGAUCACCGUGUAGAAGGCAUCAGGGAGAAGGUGCAGAGGAUCACCCUGUAAGGAUAUCAA [pwkr2 ssNG1 DX.3]  105 nM
10. GGACAUCCCACAGGAUAUGCUGGACUUUGUCCAGCAGAAGGGUGACAUGAGGAUCACCCAUGUAAUAGGAUGUCCAUAUUUAAU [Denovo 38]  79.3 nM
11. UGGACCAAUACAGGAUAUGGUGACGCACAUGAGGAUCACCCAUGUCCGCAGCGUGCUCAGCACGCCCAGAAGGGUAUUGAUUCA [Tereriesti]  74.5 nM
12. GCCAUCGCAUGAGGAUAUGGACAGCUUUGCUGUCCAGAAGGCAUGUCAUAAGACAUGAGGAUCACCCAUGUAGUUAAGAUGGCA [Mat - Same State NG 1 - JL Mod - D15]  74.1 nM
13. UUUACAUGAGGAUCACCCAUGUAUGUCACCCAUGUGUGUAAUCAGGAUAUGAAAUAAAUAAUAAAUUAGAAGGGAUAACAUGAG [Attempt 1]  72.9 nM
14. UUUACAUGAGGAUCACCCAUGUUUAGAAAGUUAAUUAUAAGUGAGGAUAUAUAAUUUAUAAAAUAGUAGAAGGCACUGGGUAUU [JR_SSNG3_Sub079]  27.2 nM
15. ACAUGAGGAUCACCCAUGUAAUAACAUCGGAUUGUCGAAGGUGAGGAUAUCGUACUGGAAUAUUUCGAGAAGGCACAUUCUCCU [JR_SSNG3_Sub075]  25.9 nM
16. GGUCCAAUAUGAGGAUAUAGCACCUUAUUGGUGCUAGAAGGCGUGUCGGUAGACAUGAGGAUCACCCAUGUAUUACAAUGGACC [SameState #28 NG1]  25.6 nM
17. GUAGCAUACCGAGGAUAUUCAGAGAAUAAAUAAACAUGAGGAUCACCCAUGUGGCGAAAGCCUAGGGAGAAGGCGGAAUGCUAC [salish99_SSNG2_r2_208]  25.3 nM
18. GUAGCAUACCGAGGAUAUUCAUAUAAUAAAUAAACAUGAGGAUCACCCAUGUGGCGAAAGCCUAGGGAGAAGGCGGAAUGCUAU [salish99_SSNG2_r2_110]  24.2 nM
19. CUAGCAUACCGAGGAUAUUCAUAUAAUAAAUAAACAUGAGGAUCACCCAUGUGGCGAAAGCCUAGGGAGAAGGCGGAAUGCUAG [salish99_SSNG2_r2_004]  20.1 nM
20. UGCACAUGAGGAUCACCCAUGUAUUGUUCGGUUUAUAGUAGUGAGGAUAUGCAAAGUAUAAGGAAGCAGAAGGCACAGGAUUCA [JR_SSNG3_Sub045]  19.5 nM

same assay, conditions: Eterna round: R98; input ligand: none

In order of rising “apparent KD of MS2 coat protein” value:
1. ACAUGAGGAUCACCCAUGUAAUAACAUCGGAUUGUCGAAGGUGAGGAUAUCGUACUGGAAUAUUUCGAGAAGGCACAUUCUCCU [JR_SSNG3_Sub075]  23.5 nM
2. UUUACAUGAGGAUCACCCAUGUUUAGAAAGUUAAUUAUAAGUGAGGAUAUAUAAUUUAUAAAAUAGUAGAAGGCACUGGGUAUU [JR_SSNG3_Sub079]  32 nM
3. CCGGAAACGGGUAGCUGUACAUGAGGAUCACCCAUGUGAUCAUAGGAUAUGGUUCCUAAUUGGAACCAGAAGGAUGUCAGCUAC [Mat - Same State NG 3 - JL Mod - D86]  32.6 nM
4. UUUACAUGAGGAUCACCCAUGUAUGUCACCCAUGUGUGUAAUCAGGAUAUGAAAUAAAUAAUAAAUUAGAAGGGAUAACAUGAG [Attempt 1]  60.3 nM
5. CCCUUCAGAAGAGGGACAUGAGGAUCACCCAUGUAGGCUGCACAGGAUAUCGAUCGGAGGCGGUACGAGAAGGGUGACGUCAUU [Soedgege]  79.3 nM
6. GUAGCAUACCGAGGAUAUUCAGAGAAUAAAUAAACAUGAGGAUCACCCAUGUGGCGAAAGCCUAGGGAGAAGGCGGAAUGCUAC [salish99_SSNG2_r2_208]  81.9 nM
7. GCCACAUGAGGAUCACCCAUGUACGGUUCCGUCUCAUUAGUGCAGGAUAUGUUCACCGGAAGUGUGCAGAAGGGUAAAAGUGGG [Onar]  88.2 nM
8. GUAGCAUACCGAGGAUAUUCAUAUAAUAAAUAAACAUGAGGAUCACCCAUGUGGCGAAAGCCUAGGGAGAAGGCGGAAUGCUAU [salish99_SSNG2_r2_110]  171 nM
9. CUAGCAUACCGAGGAUAUUCAUAUAAUAAAUAAACAUGAGGAUCACCCAUGUGGCGAAAGCCUAGGGAGAAGGCGGAAUGCUAG [salish99_SSNG2_r2_004]  212 nM
10. GGACAUCCCACAGGAUAUGCUGGACUUUGUCCAGCAGAAGGGUGACAUGAGGAUCACCCAUGUAAUAGGAUGUCCAUAUUUAAU [Denovo 38]  536 nM
11. CAAUUAUGGUGAGGAUAUGCACAGGAUCACCGUGUAGAAGGCAUCAGGUAGAAGGUGCAGAGGAUCACCCUGUAAGGAUAUAUC [pwkr2 ssNG1 DX.17]  666 nM
12. GCCAUCGCAUGAGGAUAUGGACAGCUUUGCUGUCCAGAAGGCAUGUCAUAAGACAUGAGGAUCACCCAUGUAGUUAAGAUGGCA [Mat - Same State NG 1 - JL Mod - D15]  1070 nM
13. CAUGAAGGGUGAGGAUAUGCACAGGAUCACCGUGUAGAAGGCAUCAGGUAGAAGGUGCAGAGGAUCACCCUGUAAGGAUAUAUC [pwkr2 ssNG1 DX.16]  1310 nM

From the supplement of paper PMC9170038
